From patent US10323078B2, “Isolated peptides and fragments thereof from fibrinogen for use as drugs, particularly in skin inflammatory diseases” (Universite Paris Descartes, priority 2015, dated 2019)

Tests used:
Assay type in all cases: cell-based, human
HDF cells [1] = test: O2°− production by P. acnes-stimulated HDF; conditions: 0.87 to 7 μM
Method: (§1) For experiences of stimulation with P. acnes, cells were incubated with the P. acnes suspension adjusted at the appropriate concentration, pre-treated for 1 h at 37° C. or not with fibrinogen recombinant peptides Fg1 and Fg2 at the concentrations 0.87, 1.75, 3.5 or 7 μM for the desired period of time at 37° C. in 5% CO2.
(§2) All cells lines (5·10^4 to 10^5 cells/well) were seeded in 96-well plates (Corning Costar, Brumath, France) and treated as previously described. After stimulation, cells were washed three times in PBS and incubated with 100 μl per wells of 5 μM DHE (for determination of O2^●−) or 5 μM H2-DCFDA (for determination of H2O2) for 30 min as described previously and fluorescence intensity was recorded every hour over a period of 5 h. Fluorescence excitation/emission maxima were for DHE: 480/610 nm and for H2-DCFDA: 507/525 nm. At the end of the experiment, the number of adherent cells was evaluated by the crystal violet assay as described below. O2^●−, and H2O2 were assayed by spectrofluorimetry on a Fusion spectrofluorimeter (PackardBell, Paris, France). Levels of ROS were calculated in each sample as follows: reactive oxygen species rate (arbitrary units/min/10^6 cells)=(fluorescence intensity [arbitrary units] at T5h—fluorescence intensity [arbitrary units] at To/300 minutes/number of adherent cells as measured by the crystal violet assay, and were expressed as arbitrary unit (A.U.).
(§3) To assess the efficacy of Fg1 recombinant peptide, the production of O2^∘− and H2O2 by HaCaT cells NHDK, THP-1, MRC5 and HDF stimulated by pretreated P. acnes strains 6919, RON and PIE was measured. The amount of ROS produced was compared to that produced by the stimulated cells with untreated bacteria. Production baseline was obtained by measuring ROS on unstimulated cells. The production of IL-1ß, IL-8, IL-12 and TNF-α was also measured in all conditions cited above. The measurement of the production of ROS is performed by spectrofluorimetry in the presence of specific fluorochromes directly on the monolayer cell. Measurement of cytokine production was performed in parallel on the cell culture supernatant.
(§4) Two sets of experiments were implemented: 1) The cells were stimulated (18 h at 37° C.) by P. acnes strains previously pretreated with Fg1 and Fg2 peptides at the final concentrations ranging from 0.87 to 7 μM for 1 h at 37° C.; and 2) The cells were pretreated first with Fg1 and Fg2 peptides at the final concentrations ranging from 0.87 to 7 μM for 24 h at 37° C. and stimulated (18 h at 37° C.) by P. acnes strains.

HDF cells [2] = test: IL-8 production by P. acnes-stimulated HDF (ELISA); conditions: 0.87 to 7 μM
Method: as §1
(§5) Human IL-1ß, IL-8, IL-12, hBD-2, and TNF-α protein concentration was measured in the supernatants of stimulated cells using various ELISA Set kits (Ready-Set-Go kit from eBioscience for acne experiments, and for psoriasis experiments the Duo set IL-8 kit from R&D Systems and the BD-2 Human Development (hBD-2) from Peprotech) according to the manufacturer's instructions. We used serial dilutions of recombinant human IL-1ß, IL-8, IL-12 and TNF-α for standard curve. The optical density was determined at 450 nm at a wavelength correction of 540 nm.
as §3, §4

ThP1 cells = test: IL-12 production by P. acnes-stimulated ThP1 (ELISA); conditions: P. acnes 6919, set I, bacteria first pretreated, 0.87 to 7 μM
Method: as §1, §5
as §3, with “The measurement of the production of ROS is performed by spectrofluorimetry in the presence of specific fluorochromes directly on the monolayer cell. Measurement of cytokine production was performed in parallel on the cell culture supernatant.” left out

[3] = test system: HaCaT, NHDK, THP-1, MRC5 and HDF; test: O2°− production by cells stimulated with P. acnes, overall statement for the five cell lines; conditions: pretreatment of P. acnes strains; five cell lines and three strains tested
Method: as §1
as §2, with “O2^●−, and H2O2 were assayed by spectrofluorimetry on a Fusion spectrofluorimeter (PackardBell, Paris, France).” left out, “(A.U.). […]” for “(A.U.).”

[4] = P. acnes 6919, set I, bacteria first pretreated
[5] = P. acnes 6919, set II, cells first pretreated
[6] = P. acnes PIE, set I, bacteria first pretreated
[7] = P. acnes PIE, set II, cells first pretreated
[8] = P. acnes RON, set I, bacteria first pretreated
[9] = P. acnes RON, set II, cells first pretreated

B1: MKRMVSWSFHKLKTMKHLLLLLLCVFLVKSQGVNDNEEGFFSARGHRPLDKKREEAPSLRPAPPPISGGGYRARPAKAAATQKKVERKAPDAGGCLHADPDLGVLC (protein)
chain: MKRMVSWSFHKLKTMKHLLLLLLCVFLVKSQGVNDNEEGFFSARGHRPLDKKREEAPSLRPAPPPISGGGRARPAKAAATQKKVERKAPDAGGCLHADPDLGVLCMKRMVSWSFHKLKTMKHLLLLLLCVFLVKSQGVNDNEEGFFSARGHRPLDKKREEAPSLRPAPPPISGGGYRARPAKAAATQKKVERKAPDAGGCLHADPDLGVLC
modifications: GST fusion; fragment Fg1
notes: fragment of Bß chain of human fibrinogen having 106 amino acids; recombinant GST-fused peptide expressed in E. coli
in a dose-dependent manner: Inhibition of O2°− production [3]
pos: Inhibition of Superoxide anion (O2°−) production (HDF cells [1]; [4]) | Inhibition of Superoxide anion (O2°−) production (HDF cells [1]; [5]) | Inhibition of Superoxide anion (O2°−) production (HDF cells [1]; [6]) | Inhibition of Superoxide anion (O2°−) production (HDF cells [1]; [7]) | Inhibition of Superoxide anion (O2°−) production (HDF cells [1]; [8]) | Inhibition of Superoxide anion (O2°−) production (HDF cells [1]; [9]) | Inhibition of Interleukine 8 (IL-8) production (HDF cells [2]; [4]) | Inhibition of Interleukine 8 (IL-8) production (HDF cells [2]; [5]) | Inhibition of Interleukine 8 (IL-8) production (HDF cells [2]; [6]) | Inhibition of Interleukine 8 (IL-8) production (HDF cells [2]; [7]) | Inhibition of Interleukine 8 (IL-8) production (HDF cells [2]; [8]) | Inhibition of Interleukine 8 (IL-8) production (HDF cells [2]; [9]) | Inhibition of Interleukine 12 (IL-12) production (ThP1 cells)
